In patent publication US6399759 one finds IC50 data, which are given here for one molecule.

As usually defined, the IC50 is the concentration at which inhibition is half-maximal. Lower therefore signals inhibition by little substance.

Holding throughout (assay): cell-based or functional assay
Experiment [1] has as its target Soli C2 (Solenopsis invicta).
The target of experiment [2] is Soli C1 (Solenopsis invicta).
Experiment [3] addresses T1, Soli E2 (Solenopsis invicta).
T1 sequence: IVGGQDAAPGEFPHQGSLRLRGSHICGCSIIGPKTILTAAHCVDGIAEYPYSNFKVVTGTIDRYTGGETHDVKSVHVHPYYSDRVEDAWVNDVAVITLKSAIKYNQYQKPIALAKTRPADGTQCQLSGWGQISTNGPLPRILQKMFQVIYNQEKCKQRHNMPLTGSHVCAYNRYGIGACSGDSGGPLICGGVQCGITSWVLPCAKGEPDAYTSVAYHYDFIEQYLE

The target of experiment [4] is Soli E1 (Solenopsis invicta).
Sequence of Soli E1 (Solenopsis invicta) (main, as listed by the source): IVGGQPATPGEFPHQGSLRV

Sequence of Soli C1 (Solenopsis invicta) (Q7SIG2 other isoform, or with tags, fused parts or gaps): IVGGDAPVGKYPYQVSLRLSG
Sequence of Soli C2 (Solenopsis invicta) (main, as listed by the source): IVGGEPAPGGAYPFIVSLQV

B1: Soy Bean Trypsin Inhibitor I-S (protein, soybean, UniProt P01070 25-205, looked up)
chain: DFVLDNEGNPLENGGTYYILSDITAFGGIRAAPTGNERCPLTVVQSRNELDKGIGTIISSPYRIRFIAEGHPLSLKFDSFAVIMLCVGIPTEWSVVEDLPEGPAVKIGENKDAMDGWFRLERVSDDEFNNYKLVFCPQQAEDDKCGDIGISIDHDDGTRRLVVSKNKPLVVQFQKLDKESL
Regarding B1, the IC50 in experiment [1] is 1.41 nM; in experiment [2] it was 37 nM; in experiment [3] it was 5.58 nM; in experiment [4], 4.22 nM.
